Patent US20200199207A1 (MABYLON, published 2020)
Where a chain is given by its changes, count along the chain named. Each block holds one binder with its values, some of them ahead of it.

Columns and labels:
Assay in all cases: ELISA, antigen-coated plate
nAra h 2 = target: T1, nAra h 2 (peanut, UniProt Q6PSU2 22-172)
T1 construct: Bought natural allergen; also called naturally extracted Ara h 2
T1 sequence (looked up): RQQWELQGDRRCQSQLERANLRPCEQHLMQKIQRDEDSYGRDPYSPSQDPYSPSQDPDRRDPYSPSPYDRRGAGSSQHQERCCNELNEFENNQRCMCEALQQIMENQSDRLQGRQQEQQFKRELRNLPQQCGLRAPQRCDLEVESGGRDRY
Method: (§1) EC50 binding of exemplary anti-peanut antibodies of the present invention to peanut allergens or peanut extract, was determined by ELISA. Serial dilutions of MAbs (from 1000 ng/ml down to 0.0169 ng/ml) were incubated for 2 hours with antigen-coated plates (coating overnight at 4° C. or 1 h at 37° C. with 1 μg/ml antigen in PBS, followed by wash out and blocking with 2% BSA in PBS). The plates were subsequently washed and binding of MAbs was detected with anti-human HRP-conjugated Fc-gamma-specific secondary antibody (Jackson ImmunoResearch, West Grove, Pa., USA). Concentrations of MAb resulting in half of maximal binding to respective antigens (EC50, ng/ml) were calculated using GraphPad Prism 5 software on sigmoidal dose-response curves (variable slope, 4 parameters) obtained by plotting the log of the concentration versus OD450 nm measurements; for the results see FIG. 3 and table 2.

nAra h 1 = target: T2, nAra h 1 (peanut, UniProt P43238 85-626)
T2 construct: Bought natural allergen; also called naturally extracted Ara h 1
T2 sequence (looked up): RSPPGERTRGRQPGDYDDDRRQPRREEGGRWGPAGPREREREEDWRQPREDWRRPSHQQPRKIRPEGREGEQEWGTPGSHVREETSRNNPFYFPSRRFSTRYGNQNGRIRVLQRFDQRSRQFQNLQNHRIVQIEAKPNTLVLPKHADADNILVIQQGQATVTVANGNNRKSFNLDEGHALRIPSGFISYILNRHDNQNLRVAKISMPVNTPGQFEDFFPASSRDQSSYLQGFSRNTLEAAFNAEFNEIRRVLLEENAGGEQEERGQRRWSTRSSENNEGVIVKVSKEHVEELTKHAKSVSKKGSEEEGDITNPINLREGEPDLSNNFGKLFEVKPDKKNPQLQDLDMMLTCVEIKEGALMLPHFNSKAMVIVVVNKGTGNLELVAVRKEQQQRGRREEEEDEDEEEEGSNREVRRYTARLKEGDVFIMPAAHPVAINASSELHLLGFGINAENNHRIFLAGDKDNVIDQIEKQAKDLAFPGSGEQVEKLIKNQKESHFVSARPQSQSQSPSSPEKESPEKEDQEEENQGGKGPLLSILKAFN
Method: as §1

nAra h 6 = target: T3, nAra h 6 (peanut, UniProt Q647G9 22-145)
T3 construct: Bought natural allergen; also called naturally extracted Ara h 6
T3 sequence (looked up): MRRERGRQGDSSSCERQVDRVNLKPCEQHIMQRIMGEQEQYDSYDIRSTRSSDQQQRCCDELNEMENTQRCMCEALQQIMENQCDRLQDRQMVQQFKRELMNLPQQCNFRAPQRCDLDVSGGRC
Method: as §1

nAra h 3 = target: T4, nAra h 3 (peanut)
T4 construct: Bought natural allergen; also called naturally extracted Ara h 3
Method: as §1

B1: hm4B2 (antibody, V domains shown)
VH: QVQLQEAGPRLVKPSQTLSVTCTVSGASITIGGYYWSWIRQHPGKGLEWMGYIYSNGRTYYNPSLKSRIAMSIDTSKNQFSLKLTSVTAADTAIYFCAREAWETPLWGQGTLITVSS
VL: DIQMTQSPSSLSASVGDRVTITCQANQDIVNSLNWFQHKPGTAPKVLIYDASKLETGVPSRFSGSGSGTHFTFTISGLQPEDFATYFCQQYENLPHTFGQGTKLEIR
notes: also called 4B2 with mouse Fc; hmMAb 4B2
- EC50 (nAra h 2): 0.0102 µg/mL

B2: hm2F8 (antibody, V domains shown)
VH: EVQLVESGGGLVKPGGSLRLSCAASGFIFSDYNMNWVRQAPGKGLEWVSSITRSSRTIYYADSVKGRFTISRDNAKNSLHLQMNSLRDADTAVYYCAREDFDVSTGPYYMDVWGNGTTVIVSS
VL: EIVLTQSPGTLSLSPGERATLSCRASQSVSNMFLVWYQQKPGQAPRLLMYGASTRATDIPDRFSGSGSGTDFTLTISRLEPEDFAVYYCQQNGNSPYTFGQGTKLEIK
notes: also called 2F8 with mouse Fc; hmMAb 2F8
- EC50 (nAra h 2): 0.0087 µg/mL

B4: hm12G10 (antibody, V domains shown)
VH: EVQLLESGGRLLRPGGSLSLSCVASGFYFGDFGMSWVRQVPGKGLEWVSGIDWSGRSTGYVDSMKGRLTISRDNDKSSLYLQMNDLRGEDTAVYYCARVGRLCSGDSCDSMGAFDLWGQGTMVTVSS
VL: DIQLTQSPSTLSASIGDSVTITCRASQNIDNWLAWYQQKPGKAPRLLIYKASSLGSGVSSKFRGSGFGTEFTLTITSLQPDDFATYYCQKSNGYSRTFGQGTKVDIK
notes: also called 12G10 with mouse Fc; hmMAb 12G10
- EC50 (nAra h 1): 0.195 µg/mL
- EC50 (nAra h 2): 0.0067 µg/mL
- EC50 (nAra h 6): 0.0278 µg/mL
- EC50 (nAra h 3): 0.0368 µg/mL

Second part, the binder after the results:

- EC50 (nAra h 2): 0.0099 µg/mL
B3: hm32B10 (antibody, V domains shown)
VH: QVQLVQSGAEVKKPGASVKVSCRASGYIFRNFDINWVRQATGQGLEWMGWMSPKSGDTGYAQKFQGRVTMTRDTSINTAYMELSSLTSEDSAVYYCARGVDGTNWGQGTRVTVSS
VL: DIVMTQSPDSLGVSLGERATISCKSSQSILDNSNNKNFIAWFQQKPGQPPKLLIYWASARESGVPDRFSGSGSGTEFTLTINSLQAEDVAVYYCYQYYSTPHTFGQGTKLDLR
notes: also called 32B10 with mouse Fc; hmMAb 32B10

- EC50 (nAra h 1): 0.115 µg/mL
- EC50 (nAra h 2): 0.0052 µg/mL
- EC50 (nAra h 6): 0.034 µg/mL
- EC50 (nAra h 3): 0.0723 µg/mL
B5: hm37D5 (antibody, V domains shown)
VH: EEQLVESGGRLLRPGESLSLSCAAVGFNFGDFGMAWVRQPPGKGLEWVAGINWSGHSTGFVDSMKGRLTISRDSAKSSLFLQMNSLRGEDTAVYYCARVGRLCSGDICDSMGAFDLWGQGTMVTVSS
VL: B4 VL with L4M, S18R, N28T, K39R, R45K, K50Q, G55Q, K61R, F67S, D105E
notes: also called 37D5 with mouse Fc; hmMAb 37D5
